Laboratory results taken from the PETadex activity labels (doi:10.1038/s41467-025-61599-z).

Assays:
[1] = substrate: pNPB; assay: Proxy for plastic degradation [Absorbance @ 430nm] (min⁻¹); settings: pH 8; part of the chain shown
[2] = substrate: PET; assay: Proxy for plastic degradation [Released monomer concentration (HPLC/LC-MS) (MHET+TPA)]; settings: pH 9, part of the chain shown
[3] = substrate: PET; assay: Proxy for plastic degradation [kcat/Km (catalytic efficiency)] (mM⁻¹s⁻¹); settings: pH 8; part of the chain shown
[4] = Proxy for plastic degradation [Released monomer concentration (HPLC/LC-MS) (TPA+MHET)]; settings: part of the chain shown
[5] = substrate: PET; assay: as above; settings: part of the chain shown

Sequence | Proxy for plastic degradation [1] | Proxy for plastic degradation ([2]; 30 °C) | Proxy for plastic degradation ([2]; 40 °C) | Proxy for plastic degradation ([2]; 50 °C) | Proxy for plastic degradation ([2]; 55 °C) | Proxy for plastic degradation ([2]; 60 °C) | Proxy for plastic degradation [3] | Proxy for plastic degradation ([4]; 30 °C) | Proxy for plastic degradation ([4]; 40 °C) | Proxy for plastic degradation ([4]; 60 °C) | Proxy for plastic degradation ([5]; 30 °C) | Proxy for plastic degradation ([5]; 40 °C) | Proxy for plastic degradation ([5]; 55 °C) | Proxy for plastic degradation ([5]; 60 °C) | Proxy for plastic degradation ([5]; pH 9, 50 °C, 24 h) | Proxy for plastic degradation ([5]; pH 9, 50 °C, 48 h) | Proxy for plastic degradation ([5]; pH 9, 50 °C, 72 h)
CFGGGDPDPSPEGQALGVPGDFEICSYEANLENDGYASARMTYPCDLS | 24400 | 9.91 µM | 9.79 µM | 11 µM | 10.1 µM | 10.5 µM | – | – | – | – | – | – | – | – | – | – | –
LDSPYQRGPDPTEASVKAIAGPFAVDQVKATGHTGFGSGTIFYP | 41400 | 11.2 µM | 22.8 µM | 44.2 µM | 26.1 µM | 19.7 µM | – | – | – | – | – | – | – | – | – | – | –
FGNNGGGGGGEDNVFAEPGDFDVVTEPGGRDCTIFRPEQLGDDH | 23500 | 14 µM | 13.8 µM | 15.8 µM | 14.4 µM | 14.9 µM | – | – | – | – | – | – | – | – | – | – | –
ESETTAAAVSSRYYEETGPHAVTVEQGGPDHTLYYPSDLGAGGT | 32300 | 13.9 µM | 14.7 µM | 10.6 µM | 15.5 µM | 15.3 µM | – | – | – | – | – | – | – | – | – | – | –
QTNPYARGPNPTAASLEASAGPFTVRSFTVSRPSGYGAGTVYY | 24900 | 17.3 µM | 64.7 µM | 46.9 µM | 27.4 µM | 17.4 µM | – | – | – | – | – | – | – | – | – | – | –
AGFEKGPDPTTASVTADRGSYDIAQVDVPKGSGTGFADGTIYY | 16200 | 14.6 µM | 14.2 µM | 14.1 µM | 14.4 µM | 15 µM | – | – | – | – | – | – | – | – | – | – | –
GDPPAVRTVPAAAAAPVDWSKTGPHQVKVDKADAHTIYRPSDLG | 44800 | 12.7 µM | 12.6 µM | 15.7 µM | 16 µM | 16.4 µM | – | – | – | – | – | – | – | – | – | – | –
NNPGGGGGTAPDTGTGFPGVSNFSASGSFATTSGSAGASCTVFRPST | 25400 | 8.31 µM | 9.03 µM | 9.57 µM | 9.09 µM | 9.47 µM | – | – | – | – | – | – | – | – | – | – | –
QDNSDGRYRPEGRTFARGAANLFDDRLFEARTYVTGTDVA | 49500 | 15.4 µM | 15.5 µM | 15.5 µM | 16.6 µM | 16.1 µM | – | – | – | – | – | – | – | – | – | – | –
VTKGPDPSAAEVAKVTGSYAVTETKVDDAASTKFGPATV | 31400 | 15 µM | 12.8 µM | 15.3 µM | 16.2 µM | 16.3 µM | – | – | – | – | – | – | – | – | – | – | –
TPEFKPQPGPLSIKSAAAISFRVEDQAKDLQIRVTYPDGPGPWP | 16800 | 15.7 µM | 12.8 µM | 17.3 µM | 17.3 µM | 17.2 µM | – | – | – | – | – | – | – | – | – | – | –
DPWDAPGPYATAVQIGAVNTLYYPRDIASSPRRHPVIVWGNGT | 21900 | 13 µM | 13.4 µM | 14.2 µM | 13.4 µM | 14.1 µM | – | – | – | – | – | – | – | – | – | – | –
DEIGQAPTAANITGDGSFSTSSSAIFGQSGFGGGTAYYPNTAGKYPVVAF | 34300 | 65.5 µM | 759 µM | 3600 µM | 596 µM | 167 µM | 0.263 | 65 µM | 759 µM | 167 µM | 65.5 µM | 759 µM | 167 µM | 104 µM | 742 µM | 1640 µM | 3600 µM
